# Biological target: Smurf1 (UniProt Q9HCE7)
# Assay: binding to Smurf1, pull-down format inferred
# Settings: reference: Tal210-605 wild type; sites S425
substance,measurement,value
"talin (talin head, TH) 210-605 (from UniProt P26039) Tal210-605 S425A",binding against the reference,stronger

# — publication PMC2714540
